Laboratory results taken from US20120316071A1 (published 2012).

T1: rHuman Erythropoietin R/Fc Chimera, CF (R&D Systems Cat#963-ER) (human, UniProt P19235 25-250)
T1 construct: Bought reagent; also called EPO R; EPO R/Fc; Fc part of the bought chimera not given
T1 sequence (looked up): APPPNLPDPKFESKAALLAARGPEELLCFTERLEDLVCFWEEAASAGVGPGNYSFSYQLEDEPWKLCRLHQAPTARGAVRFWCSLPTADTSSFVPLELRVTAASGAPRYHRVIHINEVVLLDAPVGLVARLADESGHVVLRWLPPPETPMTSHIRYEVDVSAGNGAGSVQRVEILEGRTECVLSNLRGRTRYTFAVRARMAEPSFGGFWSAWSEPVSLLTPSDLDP


What was measured:
[1] = target: T2, rHuman IGF-1 sR, CF (R&D Systems Cat#391-GR) (human, UniProt P08069 31-932); test: ECL (MSD) multispot binding assay, antigen spotted on plate, 20 nM Fab;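 note: purified Fab incubated 1 h at 20 °C on antigen-spotted plate, bound Fab revealed with TAG detection antibody, ECL read, antigen signal divided by same-well blank, ratio ≥4 counted as hit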
T2 construct: Bought soluble receptor; also called insulin-like growth factor-1 soluble receptor

[2] = target: T3, rHuman CD44/Fc Chimera, CF (R&D Systems Cat#3660-CD) (human, UniProt P16070 21-220); test: as above
T3 construct: Bought reagent; Fc part of the bought chimera not given

[3] = target: T4, rHuman EGF R/Fc Chimera, CF (R&D Systems Cat#344-ER) (human, UniProt P00533 25-645); test: as above
T4 construct: Bought reagent; also called epidermal growth factor receptor; Fc part of the bought chimera not given

[4] = target: T5, rHuman ErbB2/Fc Chimera, CF (R&D Systems Cat#1129-ER) (human, UniProt P04626 23-652); test: as above
T5 construct: Bought reagent; also called human epidermal growth factor 2 receptor; Fc part of the bought chimera not given

[5] = target: T1, rHuman Erythropoietin R/Fc Chimera, CF …; test: as above
[6] = target: T6, Recombinant Human DLL4 (R&D Systems Cat#1506-D4/CF) (human, UniProt Q9NR61 27-524); test: as above
T6 construct: Bought recombinant protein; also called delta-like protein 4; rHuman DLL4

[7] = target: T7, rHuman Notch-1/Fc Chimera, CF (R&D Systems Cat#3647-TK) (human, UniProt P46531 19-526); test: as above
T7 construct: Bought reagent; Fc part of the bought chimera not given

[8] = target: T8, rHuman P-Cadherin/Fc Chimera, CF (R&D Systems Cat#861-PC) (human, UniProt P22223 108-654); test: as above
T8 construct: Bought reagent; Fc part of the bought chimera not given

[9] = target: T9, Recombinant Human DLL4 (R&D Systems Cat#1506-D4/CF) (human, UniProt Q9NR61 27-529); test: 96-well plate ECL (MSD) assay, DLL4 coated on plate, Fab at 0.04 µM; ECL signal on DLL4 over signal on blank well
T9 construct: Bought recombinant protein; also called rHuman DLL4; delta-like protein 4

[10] = target: T9, Recombinant Human DLL4 (R&D Systems …); test: surface plasmon resonance, Fab against recombinant human DLL4; standard deviation in parentheses
[11] = target: T10, Recombinant Human DLL4 (delta-like protein 4) (human, UniProt Q9NR61 27-524); test: ECL (MSD) multispot binding assay, immobilized DLL4, 10 nM Fab, signal over blank
T10 construct: Bought recombinant protein (R&D Systems Cat#1506-D4/CF); also called rHuman DLL4; Delta-like 4

[12] = target: T10, Recombinant Human DLL4 (delta-like …); test: ELISA on plate-coated DLL4, absorbance at 450 nm, signal minus noise

| Binder | ECL multispot value [1] | ECL multispot value [2] | ECL multispot value [3] | ECL multispot value [4] | ECL multispot value [5] | ECL multispot value [6] | ECL multispot value [7] | ECL multispot value [8] | Signal/Noise [9] | Kd [10] [nM] | koff [10] [s⁻¹] | kon [10] [M⁻¹ s⁻¹] | Signal/Blank [10 nM Fab] [11] | ELISA (Signal-Noise) [12] |
| --- | --- | --- | --- | --- | --- | --- | --- | --- | --- | --- | --- | --- | --- | --- |
| Fab VH3-23_IGHD2-21*01>3_IGHJ6*01 H100E/S108P/Y113G Y114I & V2-13_IGLJ2*01 (Fab, V domains shown, Tested as Fab made in E. coli (VH-CH1 with His and Flag tags; lambda CL); also called EPG Y114I) VH: not shown VL: SSELTQDPAVSVALGQTVRITCQGDSLRSYYASWYQQKPGQAPVLVIYGKNNRPSGIPDRFSGSSSGNTASLTITGAQAEDEADYYCNSRDSSGNHLVVFGGGTKLTVL | 1.4 | 1.8 | 7.1 | 11.4 | 162 | 2.4 | 2.6 | 22.6 | – | – | – | – | – | – |
| Fab VH3-23_IGHD2-21*01>3_IGHJ6*01 H100E/S108P/Y113G Y114E & V2-13_IGLJ2*01 (Fab, V domains shown, Tested as Fab made in E. coli (VH-CH1 with His and Flag tags; lambda CL); also called EPG Y114E) VH: not shown VL: SSELTQDPAVSVALGQTVRITCQGDSLRSYYASWYQQKPGQAPVLVIYGKNNRPSGIPDRFSGSSSGNTASLTITGAQAEDEADYYCNSRDSSGNHLVVFGGGTKLTVL | 1.5 | 1.5 | 6.8 | 7.4 | 69.2 | 2.2 | – | 13.9 | – | – | – | – | – | – |
| Fab VH3-23_IGHD2-21*01>3_IGHJ6*01 H100E/S108P/Y113G Y112G & V2-13_IGLJ2*01 (Fab, V domains shown, Tested as Fab made in E. coli (VH-CH1 with His and Flag tags; lambda CL); also called EPG Y112G) VH: not shown VL: SSELTQDPAVSVALGQTVRITCQGDSLRSYYASWYQQKPGQAPVLVIYGKNNRPSGIPDRFSGSSSGNTASLTITGAQAEDEADYYCNSRDSSGNHLVVFGGGTKLTVL | 1 | 1.2 | 1.7 | 1.4 | 7.9 | 1.3 | 2.1 | 2.3 | – | – | – | – | – | – |
| Fab VH1-46_IGHD6-6*01_IGHJ1*01 & L6_IGKJ1*01 (Fab, V domains shown, Germline Fab made in E. coli: VH in Plasmid A (CH1, His6 and Flag tags), kappa VL in Plasmid C (kappa CL); also called parental; wildtype) VH: QVQLVQSGAEVKKPGASVKVSCKASGYTFTSYYMHWVRQAPGQGLEWMGIINPSGGSTSYAQKFQGRVTMTRDTSTSTVYMELSSLRSEDTAVYYCAREEYSSSSAEYFQHWGQGTLVTVSS VL: not shown | – | – | – | – | – | – | – | – | 3.1 | 730 | 0.101 | 163000 | – | – |
| Fab VH1-46_IGHD6-6*01_IGHJ1*01 S102A/S103P/S104F/H111F S84G & L6_IGKJ1*01 (Fab, V domains shown, Tested as Fab expressed in E. coli; also called APFF S84G) VH: QVQLVQSGAEVKKPGASVKVSCKASGYTFTSYYMHWVRQAPGQGLEWMGIINPSGGSTSYAQKFQGRVTMTRDTSTSTVYMELGSLRSEDTAVYYCAREEYAPFSAEYFQFWGQGTLVTVSS VL: not shown | – | – | – | – | – | – | – | – | – | – | – | – | 346 | 0.53 |
| Fab VH1-46_IGHD6-6*01_IGHJ1*01 H111A & L6_IGKJ1*01 (Fab, V domains shown, Heavy chain CDR3 alanine mutant of the parental Fab; Fab format as the parent (CH1 with His6/Flag tags, kappa CL)) VH: QVQLVQSGAEVKKPGASVKVSCKASGYTFTSYYMHWVRQAPGQGLEWMGIINPSGGSTSYAQKFQGRVTMTRDTSTSTVYMELSSLRSEDTAVYYCAREEYSSSSAEYFQAWGQGTLVTVSS VL: not shown | – | – | – | – | – | – | – | – | 2.4 | – | – | – | – | – |
| Fab VH1-46_IGHD6-6*01_IGHJ1*01 S105A & L6_IGKJ1*01 (Fab, V domains shown, Heavy chain CDR3 alanine mutant of the parental Fab; Fab format as the parent (CH1 with His6/Flag tags, kappa CL)) VH: QVQLVQSGAEVKKPGASVKVSCKASGYTFTSYYMHWVRQAPGQGLEWMGIINPSGGSTSYAQKFQGRVTMTRDTSTSTVYMELSSLRSEDTAVYYCAREEYSSSAAEYFQHWGQGTLVTVSS VL: not shown | – | – | – | – | – | – | – | – | 0.8 | – | – | – | – | – |

The remaining lines, values ahead:

| ECL multispot value [1] | ECL multispot value [2] | ECL multispot value [3] | ECL multispot value [4] | ECL multispot value [5] | ECL multispot value [6] | ECL multispot value [7] | ECL multispot value [8] | Signal/Noise [9] | Kd [10] [nM] | koff [10] [s⁻¹] | kon [10] [M⁻¹ s⁻¹] | Signal/Blank [10 nM Fab] [11] | ELISA (Signal-Noise) [12] | Binder |
| --- | --- | --- | --- | --- | --- | --- | --- | --- | --- | --- | --- | --- | --- | --- |
| 1.3 | 1.4 | 5 | 8.7 | 68.5 | 2.2 | 2.9 | 15.8 | – | – | – | – | – | – | Fab VH3-23_IGHD2-21*01>3_IGHJ6*01 H100E/S108P/Y113G Y114S & V2-13_IGLJ2*01 (Fab, V domains shown, Tested as Fab made in E. coli (VH-CH1 with His and Flag tags; lambda CL); also called EPG Y114S) VH: not shown VL: SSELTQDPAVSVALGQTVRITCQGDSLRSYYASWYQQKPGQAPVLVIYGKNNRPSGIPDRFSGSSSGNTASLTITGAQAEDEADYYCNSRDSSGNHLVVFGGGTKLTVL |
| 1.1 | 1.6 | 6.6 | 9.3 | – | 1.9 | 2.2 | 16.7 | – | – | – | – | – | – | Fab VH3-23_IGHD2-21*01>3_IGHJ6*01 H100E/S108P/Y113G Y114W & V2-13_IGLJ2*01 (Fab, V domains shown, Tested as Fab made in E. coli (VH-CH1 with His and Flag tags; lambda CL); also called EPG Y114W) VH: not shown VL: SSELTQDPAVSVALGQTVRITCQGDSLRSYYASWYQQKPGQAPVLVIYGKNNRPSGIPDRFSGSSSGNTASLTITGAQAEDEADYYCNSRDSSGNHLVVFGGGTKLTVL |
| 1.2 | 1.2 | 2.6 | – | 35 | 1.6 | 2 | 5.9 | – | – | – | – | – | – | Fab VH3-23_IGHD2-21*01>3_IGHJ6*01 H100E/S108P/Y113G Y114N & V2-13_IGLJ2*01 (Fab, V domains shown, Tested as Fab made in E. coli (VH-CH1 with His and Flag tags; lambda CL); also called EPG Y114N) VH: not shown VL: SSELTQDPAVSVALGQTVRITCQGDSLRSYYASWYQQKPGQAPVLVIYGKNNRPSGIPDRFSGSSSGNTASLTITGAQAEDEADYYCNSRDSSGNHLVVFGGGTKLTVL |
